Patent US7060681B2, “Compositions and methods for use of bioactive agents derived from sulfated and sulfonated amino acids” (Ecole Polytechnique Federale de Lausanne (EPFL), priority 2001, dated 2006)
Ends that are not written are not given here. * marks the point of attachment. SO3 = sulfate on the tyrosine hydroxyl group, O=S(=O)(O)*

Columns and labels:
VEGF165 = molecular target: T1, VEGF165 (Homo sapiens, UniProt P15692); test: Colorimetric competitive bead assay with biotinylated VEGF165 in presence of heparin; assay type: binding; settings: about 0.25 nM biotinylated VEGF165; 1 or 10 equivalents of heparin
T1 construct: made in house; host or cells: E. coli AD494 (DE3)pLysS
T1 sequence (P15692 27-191 isoform P15692-4): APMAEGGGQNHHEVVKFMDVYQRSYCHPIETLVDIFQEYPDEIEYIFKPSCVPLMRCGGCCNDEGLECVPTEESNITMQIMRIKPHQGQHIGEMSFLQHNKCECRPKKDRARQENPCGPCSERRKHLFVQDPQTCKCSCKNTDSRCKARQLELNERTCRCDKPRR
Method: A colorimetric assay was used to screen the library. The assay employed two different precipitating, developing dyes. In this way, beads that bound VEGF165 selectively and through the sulfate functionality could be determined. A portion of the library (2–3 copies) was swelled with H2O and rinsed 3 times with TBS. The resin was subjected overnight to 0.1% albumin and 0.2% Tween in Tris buffered saline (TBS, blocking buffer) and then rinsed with TBS (2×) prior to adding 1 mL streptavidin alkaline phosphatase (diluted 1:1000 from a 1 mg/mL solution) and shaking for 2 hours. The resin was rinsed with TBS (5×) and 200 μL of 5-bromo-4-chloro-3-indoylphosphate p-toluidine salt/nitro blue tetrazolium chloride (BCIP/NBT) reagent was added to develop a blue/black color where the streptavidin alkaline phosphatase was present. Nonspecific adsorption of the streptavidin alkaline phosphatase was detected as blue/black stained beads. After 15 minutes, the resin was rinsed with TBS (5×) prior to adding 100 μL of about 0.25 nM of biotinylated VEGF165 in the presence or absence of 1 or 10 equivalents of heparin sodium salt (isolated from porcine intestinal mucosa) in 400 μL of blocking buffer. The mixture was shaken overnight, the solution removed, the resin washed with TBS (6×), and 1 mL streptavidin alkaline phosphatase (diluted 1:1000 from a 1 mg/mL solution) was added. […]

VEGF = molecular target: T2, VEGF (Homo sapiens, UniProt P15692); test: Dissociation constant (KD) by surface plasma resonance (SPR); assay type: binding; settings: ± standard deviation
T2 sequence (P15692 27-191 isoform P15692-4): T1 sequence (P15692 27-191 isoform P15692-4)
Description: The sequence from the highest ranked bead from the first library of Example 1, was synthesized as SY(SO3)DY(SO3)G (SEE SEQ ID NO: 17), and the peptide Y(SO3)Y(SO3)GGY(SO3)DY(SO3) (SEE SEQ ID NO: 14) from the library of this Example were both synthesized independently and the dissociation constant (KD) determined by surface plasma resonance (SPR). The peptides were compared to suramin, a known heparin mimic that inhibits angiogenesis. […] Using SPR, there was no detectible binding of the analogous desulfated peptides to VEGF.

Binding of VEGF165 to peptide bead in the presence of heparin (in words) (VEGF165) | Kd (VEGF) [µM] | Compound
bound |  | Y(SO3)Y(SO3)GGY(SO3)DY(SO3) (not fully specified (N-terminus); printed as Y(SO3)Y(SO3)GGY(SO3)DY(SO3))
 | 340 | Cc1ccc(C(=O)Nc2ccc(S(=O)(=O)O)c3cc(S(=O)(=O)O)cc(S(=O)(=O)O)c23)cc1NC(=O)c1cccc(NC(=O)Nc2cccc(C(=O)Nc3cc(C(=O)Nc4ccc(S(=O)(=O)O)c5cc(S(=O)(=O)O)cc(S(=O)(=O)O)c45)ccc3C)c2)c1 [Suramin, suramin]
